Target: T1, TrnC (Bacillus thuringiensis, fluorescently labeled with RED-NHS (in the MST experiments where TrnC is the labelled partner))
T1 construct: TrnC, radical SAM (rSAM/SPASM) sactisynthase encoded in the thuricin CD biosynthetic gene cluster of Bacillus thuringiensis; Likely holds three [4Fe-4S] clusters after reconstitution; also called 6× His-tagged TrnC; wild type TrnC; source: E. coli, purified to near homogeneity and reconstituted under anaerobic conditions; also E. coli lysate, coexpressed with non-tagged TrnD from a …
Assay: MST; TrnC fluorescently labeled with RED-NHS; series of diluted TrnD (or TrnD(ΔRRE), or an equimolar mixture of TrnD with TrnA or TrnB) mixed with it in capillaries; Monolith instrument; aerobic conditions
Settings: both partners purified

Binder | Kd
TrnD (enzyme, fluorescently labeled (in the MST of Fig. 5D only)) MKKYFRLYPYCHLEIGETNSCLYDISSGKMIRVNRENAELLRQCQENVPIESINMDLGILDELIKMNLGTYYANPQFIEPFFETNDTKNRIFGKNNILRQMFILTSTDCNMNCKHCNTDSTVFRKTGCKIWPKSINLNALTQSHWRKILEAFYNLHGEELTFIGGEPFLEFDFIKNIVEIAQEVGISKFSIFTNGSIINDTILNFLMENKIKVYIQIFEVDENKFKAFTNSDIPSIQIIDNIKKLNNHHLDLQLRILITRDNDNNLKKIVNTLQKETNVKDIKIEFLYPKPDNSYYSKKYIPLMYDKKREFSHVNVQKMQFLHQYNPSFFGQITIRRDGKVVPHPMLLTRVIGDLQQDDLFTIINTEEYQEYSTLNKEKISKCSTCAYKYNCMDDRVIENFATGDLYGMEYCNF | 2390 ± 460 nM
equimolar mixture of TrnD and TrnB (complex) chain 1: MKKYFRLYPYCHLEIGETNSCLYDISSGKMIRVNRENAELLRQCQENVPIESINMDLGILDELIKMNLGTYYANPQFIEPFFETNDTKNRIFGKNNILRQMFILTSTDCNMNCKHCNTDSTVFRKTGCKIWPKSINLNALTQSHWRKILEAFYNLHGEELTFIGGEPFLEFDFIKNIVEIAQEVGISKFSIFTNGSIINDTILNFLMENKIKVYIQIFEVDENKFKAFTNSDIPSIQIIDNIKKLNNHHLDLQLRILITRDNDNNLKKIVNTLQKETNVKDIKIEFLYPKPDNSYYSKKYIPLMYDKKREFSHVNVQKMQFLHQYNPSFFGQITIRRDGKVVPHPMLLTRVIGDLQQDDLFTIINTEEYQEYSTLNKEKISKCSTCAYKYNCMDDRVIENFATGDLYGMEYCNF chain 2: MEVLNKQNVNIIPESEEVGGWVACVGACGTVCLASGGVGTEFAAASYFL | 620 ± 160 nM
